Experimental data reported in PMC7710722, “A nanobody suite for yeast scaffold nucleoporins provides details of the nuclear pore complex structure” (Nature Communications, 2020).

How the values were obtained:
Conditions in all cases: both partners purified
[1] = biological target: T1, Nup85 (analyte of the BLI of Table 1) (Saccharomyces cerevisiae S288c, UniProt P46673); experiment: BLI; biotinylated, C-terminally Avi-tagged nanobody immobilised on streptavidin tips, nup as analyte in twofold dilution series; 10 mM Tris/HCl pH 7.5, 150 mM NaCl, 1 mM DTT, 0.1 mM EDTA, 0.05% Tween-20, 0.1% BSA; global 1:1 kinetic fit
T1 construct: Nup85, S. cerevisiae; the analyte may have been a complex with Seh1; source: E. coli, recombinant

[2] = biological target: T2, Nup133 (analyte of the BLI of Table 1) (Saccharomyces cerevisiae (strain ATCC …, UniProt P36161)); experiment: as above
T2 construct: Nup133, S. cerevisiae; source: E. coli, recombinant

[3] = biological target: T3, Sec13 (analyte of the BLI of Table 1) (Saccharomyces cerevisiae S288c, UniProt Q04491); experiment: as above
T3 construct: Sec13, S. cerevisiae; The analyte may have been Sec13 fused to the Nup145C insertion blade; source: E. coli, recombinant

[4] = biological target: T4, Nup84 (S. cerevisiae, UniProt P52891); experiment: as above
T4 construct: Nup84, S. cerevisiae; limits not given; source: E. coli LOBSTR-RIL(DE3), purified (Ni Sepharose, 3C protease, HiTrap SP FF flow-through, Superdex S200)

[5] = biological target: T5, Nup120 (analyte of the BLI of Table 1) (Saccharomyces cerevisiae S288c, UniProt P35729); experiment: as above
T5 construct: Nup120, S. cerevisiae; source: E. coli, recombinant

[6] = biological target: T6, Nic96_(186–839) (Saccharomyces cerevisiae S288c, UniProt P34077); experiment: as above
T6 construct: The only Nic96 construct in the methods; source: E. coli LOBSTR-RIL(DE3), purified (Ni Sepharose, 3C protease, Superdex S200)

[7] = biological target: T7, fusion construct of Nup145C-Sec13 (Saccharomyces cerevisiae S288c, UniProt P49687;Q04491); experiment: SEC; nup and nanobody incubated 30 min on ice, then Superdex S75 or S200 10/300 in 150 mM NaCl, 10 mM Tris/HCl pH 7.5, 1 mM DTT, 0.1 mM EDTA
T7 construct: Nup145C, the C-terminal product of Nup145, S. cerevisiae; named among the 'full-length nups'; Sec13, S. cerevisiae; source: E. coli

[8] = biological target: T8, Sec13 fused to the Nup145C insertion blade (Saccharomyces cerevisiae S288c, UniProt Q04491); experiment: as above
T8 construct: Sec13, S. cerevisiae; Nup145C insertion blade, S. cerevisiae, residues 320-411 as printed; also called Sec13-Nup145C_(320–411); Sec13-Nup145C_(blade); source: E. coli LOBSTR-RIL(DE3), purified (Ni Sepharose, 3C protease, Superdex S75)

[9] = biological target: T9, Nup120-Nup85-Seh1-Nup145C-Sec13 (Saccharomyces cerevisiae S288c, UniProt P35729;P46673;P53011;P49687;Q04491); experiment: as above
T9 construct: Nup120, S. cerevisiae; Nup85, S. cerevisiae; Seh1, S. cerevisiae; Nup145C, the C-terminal product of Nup145, S. cerevisiae, residues 34-712; Sec13, S. cerevisiae; Nup145C and Sec13 may stand on one chain as in the fusion construct; also called assembled Y complex hub; source: E. coli, purified; assembled from Nup85-Seh1 and Nup120-Nup145C_(34–712)-Sec13 on Superdex S200; copies: + + + +

[10] = biological target: T10, Nup85_(1–564) (S. cerevisiae, UniProt P46673 1-564); experiment: crystal structure; nup-nanobody complexes crystallised at 18 °C; solved by molecular replacement
T10 construct: Nup85, S. cerevisiae, residues 1-564 (crown and trunk modules); The Nup85 chain of m31, written alone for the pairs that touch in the structure 6X08; also called Nup85_(trunk-crown); Nup85_(crown-trunk); source: E. coli LOBSTR-RIL(DE3), purified together with Seh1
T10 sequence (looked up): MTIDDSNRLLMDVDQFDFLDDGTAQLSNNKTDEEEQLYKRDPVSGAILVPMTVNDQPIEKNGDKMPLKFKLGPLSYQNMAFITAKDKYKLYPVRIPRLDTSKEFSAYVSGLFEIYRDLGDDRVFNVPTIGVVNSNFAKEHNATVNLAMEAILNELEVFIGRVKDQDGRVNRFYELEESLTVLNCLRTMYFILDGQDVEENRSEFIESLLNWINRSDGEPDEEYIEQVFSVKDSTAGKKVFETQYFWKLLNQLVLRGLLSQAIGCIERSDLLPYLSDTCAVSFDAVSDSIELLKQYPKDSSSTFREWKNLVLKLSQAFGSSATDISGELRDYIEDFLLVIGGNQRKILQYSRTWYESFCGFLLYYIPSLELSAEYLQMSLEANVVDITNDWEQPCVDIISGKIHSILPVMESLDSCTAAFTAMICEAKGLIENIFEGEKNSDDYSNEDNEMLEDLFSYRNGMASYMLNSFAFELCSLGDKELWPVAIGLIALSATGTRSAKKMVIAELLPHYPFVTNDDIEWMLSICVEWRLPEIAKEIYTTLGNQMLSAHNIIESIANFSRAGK

T4 sequence (P52891 whole entry): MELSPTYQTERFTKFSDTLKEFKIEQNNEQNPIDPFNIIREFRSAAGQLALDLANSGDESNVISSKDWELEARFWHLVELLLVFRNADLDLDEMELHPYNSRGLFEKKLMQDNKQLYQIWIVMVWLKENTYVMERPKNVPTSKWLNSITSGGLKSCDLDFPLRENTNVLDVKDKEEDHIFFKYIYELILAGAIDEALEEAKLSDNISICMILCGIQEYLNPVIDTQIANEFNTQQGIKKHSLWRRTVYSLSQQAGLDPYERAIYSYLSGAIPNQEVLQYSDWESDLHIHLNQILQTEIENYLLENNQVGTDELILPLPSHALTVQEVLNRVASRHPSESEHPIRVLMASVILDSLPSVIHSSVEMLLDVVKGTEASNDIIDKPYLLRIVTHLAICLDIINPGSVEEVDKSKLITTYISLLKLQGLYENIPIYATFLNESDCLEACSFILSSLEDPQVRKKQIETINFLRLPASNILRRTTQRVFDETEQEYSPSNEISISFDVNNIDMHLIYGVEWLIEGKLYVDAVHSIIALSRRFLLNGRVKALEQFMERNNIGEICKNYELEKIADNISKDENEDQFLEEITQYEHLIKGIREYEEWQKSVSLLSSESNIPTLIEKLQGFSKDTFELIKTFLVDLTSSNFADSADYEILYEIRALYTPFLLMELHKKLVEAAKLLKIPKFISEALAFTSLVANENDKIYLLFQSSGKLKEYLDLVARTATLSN
T5 sequence (P35729 whole entry): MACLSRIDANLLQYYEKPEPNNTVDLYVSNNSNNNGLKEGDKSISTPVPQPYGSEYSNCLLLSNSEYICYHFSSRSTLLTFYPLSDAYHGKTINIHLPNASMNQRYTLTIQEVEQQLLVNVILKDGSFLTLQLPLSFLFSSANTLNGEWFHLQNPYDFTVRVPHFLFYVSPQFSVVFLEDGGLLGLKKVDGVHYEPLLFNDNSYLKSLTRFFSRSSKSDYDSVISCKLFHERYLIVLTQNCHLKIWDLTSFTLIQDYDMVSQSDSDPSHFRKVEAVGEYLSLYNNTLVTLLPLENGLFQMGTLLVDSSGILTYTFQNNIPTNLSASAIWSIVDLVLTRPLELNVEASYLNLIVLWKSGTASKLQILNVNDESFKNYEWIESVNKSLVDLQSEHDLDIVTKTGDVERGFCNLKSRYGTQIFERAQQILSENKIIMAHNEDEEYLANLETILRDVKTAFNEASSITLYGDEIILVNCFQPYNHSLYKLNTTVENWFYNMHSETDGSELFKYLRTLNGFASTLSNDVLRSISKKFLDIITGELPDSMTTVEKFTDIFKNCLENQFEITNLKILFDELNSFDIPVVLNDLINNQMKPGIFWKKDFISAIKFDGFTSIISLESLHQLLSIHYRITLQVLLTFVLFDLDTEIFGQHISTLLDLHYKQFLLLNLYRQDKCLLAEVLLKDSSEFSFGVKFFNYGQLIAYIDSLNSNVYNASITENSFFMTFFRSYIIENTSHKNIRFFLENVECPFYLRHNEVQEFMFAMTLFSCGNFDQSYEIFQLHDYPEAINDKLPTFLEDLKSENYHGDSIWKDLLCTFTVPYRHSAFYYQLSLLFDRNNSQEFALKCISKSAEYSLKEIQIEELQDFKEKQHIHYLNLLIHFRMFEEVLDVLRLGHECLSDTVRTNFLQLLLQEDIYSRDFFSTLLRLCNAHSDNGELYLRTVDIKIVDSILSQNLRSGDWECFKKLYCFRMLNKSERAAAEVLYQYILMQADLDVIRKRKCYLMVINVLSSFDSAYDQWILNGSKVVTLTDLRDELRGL
T2 sequence (P36161 whole entry): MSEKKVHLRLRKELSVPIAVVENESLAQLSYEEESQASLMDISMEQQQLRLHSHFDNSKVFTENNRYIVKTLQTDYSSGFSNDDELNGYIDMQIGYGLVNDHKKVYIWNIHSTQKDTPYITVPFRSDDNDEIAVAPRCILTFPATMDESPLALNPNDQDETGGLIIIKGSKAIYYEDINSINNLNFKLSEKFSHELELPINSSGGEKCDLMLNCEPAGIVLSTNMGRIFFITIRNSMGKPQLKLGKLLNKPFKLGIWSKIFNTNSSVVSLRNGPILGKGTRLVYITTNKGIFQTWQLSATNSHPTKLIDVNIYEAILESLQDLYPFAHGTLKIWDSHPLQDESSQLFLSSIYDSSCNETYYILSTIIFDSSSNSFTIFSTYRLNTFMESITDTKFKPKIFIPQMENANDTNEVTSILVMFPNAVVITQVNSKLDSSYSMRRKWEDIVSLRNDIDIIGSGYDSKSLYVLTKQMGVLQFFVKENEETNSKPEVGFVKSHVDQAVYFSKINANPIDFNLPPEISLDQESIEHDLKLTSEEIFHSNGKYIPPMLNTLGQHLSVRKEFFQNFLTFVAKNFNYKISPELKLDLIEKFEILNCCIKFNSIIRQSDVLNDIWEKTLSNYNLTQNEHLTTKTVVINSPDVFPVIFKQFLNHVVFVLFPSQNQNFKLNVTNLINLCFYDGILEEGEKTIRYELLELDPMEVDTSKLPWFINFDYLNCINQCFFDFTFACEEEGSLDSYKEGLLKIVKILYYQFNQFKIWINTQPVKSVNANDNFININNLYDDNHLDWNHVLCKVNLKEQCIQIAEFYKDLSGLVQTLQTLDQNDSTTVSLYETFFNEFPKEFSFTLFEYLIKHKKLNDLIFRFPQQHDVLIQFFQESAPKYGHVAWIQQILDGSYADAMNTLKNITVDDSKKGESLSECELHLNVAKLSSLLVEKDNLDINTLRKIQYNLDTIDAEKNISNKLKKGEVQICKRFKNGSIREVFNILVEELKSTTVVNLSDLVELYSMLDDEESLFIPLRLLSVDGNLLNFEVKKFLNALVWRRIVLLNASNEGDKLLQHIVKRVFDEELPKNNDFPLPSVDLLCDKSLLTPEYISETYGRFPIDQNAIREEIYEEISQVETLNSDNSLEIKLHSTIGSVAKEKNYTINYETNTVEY
T3 sequence (Q04491 whole entry, the tested form may be a part): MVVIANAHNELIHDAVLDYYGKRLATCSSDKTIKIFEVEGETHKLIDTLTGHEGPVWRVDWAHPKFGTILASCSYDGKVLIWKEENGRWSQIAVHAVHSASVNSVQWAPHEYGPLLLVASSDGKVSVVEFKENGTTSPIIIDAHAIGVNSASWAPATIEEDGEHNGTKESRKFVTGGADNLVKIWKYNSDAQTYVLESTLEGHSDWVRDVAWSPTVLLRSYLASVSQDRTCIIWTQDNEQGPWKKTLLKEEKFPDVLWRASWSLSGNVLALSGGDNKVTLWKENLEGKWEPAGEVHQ

B1: VHH-SAN1 with biotinylated C-terminal Avi-tag (VHH)
VHH: QVQLVETGGGLVPPGGSLKLSCAVSGDILRVQTMGWYRQAPGKQRELVAAFTGGGRTNYADSMKGRFTISRDNAKNTVFLQMNSLKPEDTAVYYCRADIAAVRPWPLQEYWGQGTQVTVSS
notes: Separate Avi-tagged construct used for BLI; source: E. coli LOBSTR-RIL(DE3), biotin added to the culture, purified (Ni Sepharose, SEN-p protease, Superdex S75); not shown: 14xHis, N-terminal, cleaved; bdSUMO, N-terminal, cleaved; Avi-tag, C-terminal, kept
In the case of B1, the Kd [1] is reported as 0.58 nM, the koff [1] is reported as 0.0014 s⁻¹ and the kon [1] is reported as 2.3e+06 M⁻¹ s⁻¹.

B2: VHH-SAN4 with biotinylated C-terminal Avi-tag (VHH)
VHH: QLQLVESGGGSVQAGGSLTLSCTASESISKRIHGIGWFRQRRGEQREEIAYITTGGRPNLGDSVKDRFTISRDKSNGTVYLQMNSLKPEDTAVYYCHGRGRWWGTEGRLDYWGQGTQVTVSS
notes: as for B1
With B2 the Kd [2] was 230 nM, the koff [2] was 0.22 s⁻¹ and the kon [2] was 950000 M⁻¹ s⁻¹.

B3: VHH-SAN5 with biotinylated C-terminal Avi-tag (VHH)
VHH: QVQLVESGGGLVQAGGSLRLSCAASGSIGSLDAMAWYRRAPGKQRERVASISRYGTYYVDSVKGRFTISRDNAKNTVYLQMNSLKPEDTGVYYCKGVMEVGGVIDEYWGQGTQVTVSS
notes: as for B1
Work on B3 yielded a Kd [2] of 10 nM, a koff [2] of 0.0028 s⁻¹ and a kon [2] of 280000 M⁻¹ s⁻¹.

B4: VHH-SAN7 with biotinylated C-terminal Avi-tag (VHH)
VHH: QVQLVETGGGLVQPGGSLRLSCVASGSIFGINAMGWYRQAPGNQRELVASIRSDFGTTKYADSVKGRFTISRGNARTTVYLQMNSLKPEDTAVYYCRIWSADGNYWGQGTQVTVSS
notes: as for B1
Binder B4 has a Kd [3] of 0.51 nM, a koff [3] of 0.00065 s⁻¹ and a kon [3] of 1.3e+06 M⁻¹ s⁻¹.

B5: VHH-SAN8 with biotinylated C-terminal Avi-tag (VHH)
VHH: QLQLVETGGGLVQAGGSLRLSCVASGRTFTSYAMGWFRQAPGKEREFVAAISRLASGTDYADSVKGRFTISRNNDKNTVYLQMNNLIPEDTAVYYCAALQALRFSLPIAMATMKNGRADSWGQGTQVTVSS
notes: as for B1
In the case of B5, the Kd [4] is reported as 0.063 nM, the koff [4] is reported as 2.2e-05 s⁻¹ and the kon [4] is reported as 350000 M⁻¹ s⁻¹.

B6: VHH-SAN9 with biotinylated C-terminal Avi-tag (VHH)
VHH: QVQLVESGGGSVQAGGSLRLSCAVSGGTLSTLAMGWFRQAPGQEREFVARIGWTNGDTGYADSVKGRFTISRDNVKNTVYLQMNNLKPEDTALYYCATRRPYGSTLYPPNTESAHDNWGQGTQVTVSS
notes: as for B1
B6 showed a Kd [4] of 0.17 nM, a koff [4] of 7.7e-05 s⁻¹ and a kon [4] of 440000 M⁻¹ s⁻¹.

B7: VHH-SAN10 with biotinylated C-terminal Avi-tag (VHH)
VHH: QVQLVETGGGLVQAGGSLRLSCVVSGRTFSSYAMGWFRQAPGKEREFVSGINWSGGSAYYGDSVKGRFTISRDNAKNTVYLQMNSLKPEDTAVYYCVADRAWRGTTWRADSSYDYWGQGTQVTVSS
notes: deposited with PDB 6X06, but no density for VHH-SAN10 in the map; Separate Avi-tagged construct used for BLI; source: E. coli LOBSTR-RIL(DE3), biotin added to the culture, purified (Ni Sepharose, SEN-p protease, Superdex S75); not shown: 14xHis, N-terminal, cleaved; bdSUMO, N-terminal, cleaved; Avi-tag, C-terminal, kept
B7 was tested, and the Kd [5] was 0.38 nM, the koff [5] was 0.00017 s⁻¹ and the kon [5] was 450000 M⁻¹ s⁻¹.

B8: VHH-SAN11 with biotinylated C-terminal Avi-tag (VHH)
VHH: QVQLVETGGGLVRAGGSLRLSCVDSGRTFRVYTMGWFRQAPGKEREFVAAIRWSGDRTYYGDPVQGRFTISRDKGKNTVYLQMNSLKPEDTAVYYCAAPAGGGVVYDDHKAYAYWGQGTQVTVS
notes: also in PDB 6X06; Separate Avi-tagged construct used for BLI; source: E. coli LOBSTR-RIL(DE3), biotin added to the culture, purified (Ni Sepharose, SEN-p protease, Superdex S75); not shown: 14xHis, N-terminal, cleaved; bdSUMO, N-terminal, cleaved; Avi-tag, C-terminal, kept
Binder B8 has a Kd [5] of 0.79 nM, a koff [5] of 0.00078 s⁻¹ and a kon [5] of 980000 M⁻¹ s⁻¹.

B9: VHH-SAN12 with biotinylated C-terminal Avi-tag (VHH)
VHH: QVQLVETGGGLVQAGGSLRLSCATSGFNFRLRTMGWYRQAPGKERELVASITSGGSTDYADSVKGRFTISRDNAKNTISLEMNSLKPDDTAVYYCNIWAPTTAAITNWGQGTQVTVSS
notes: also in PDB 6X07; Separate Avi-tagged construct used for BLI; source: E. coli LOBSTR-RIL(DE3), biotin added to the culture, purified (Ni Sepharose, SEN-p protease, Superdex S75); not shown: 14xHis, N-terminal, cleaved; bdSUMO, N-terminal, cleaved; Avi-tag, C-terminal, kept
Binder B9 has a Kd [6] of 1.3 nM, a koff [6] of 0.0024 s⁻¹ and a kon [6] of 1.8e+06 M⁻¹ s⁻¹.

B10: VHH-SAN2 with biotinylated C-terminal Avi-tag (VHH)
VHH: QVQLVETGGGLVQPGGSLRLSCAASGFTLDDYAIGWFRQAPGKEREGVSCISRSGGSTTYTDSVKGRFTISRDNAENTVYLQMNSLKPEDTAVYYCAAARTRGTCWLNRIGMDYWGKGTQVTVSS
notes: also in PDB 6X08; Separate Avi-tagged construct used for BLI; source: E. coli LOBSTR-RIL(DE3), biotin added to the culture, purified (Ni Sepharose, SEN-p protease, Superdex S75); not shown: 14xHis, N-terminal, cleaved; bdSUMO, N-terminal, cleaved; Avi-tag, C-terminal, kept
Work on B10 yielded a Kd [1] of 0.08 nM, a koff [1] of 8.1e-05 s⁻¹ and a kon [1] of 1e+06 M⁻¹ s⁻¹.

B11: VHH-SAN6 (VHH)
VHH: QLQLVETGGGSVQAGGSLSLSCIVSGRTSTYYAMGWFRQAPGKEREFVAAINWSGSSTVYEESVKGRFTISRDNVQNTVYLQMNSLKPEDTADYYCAAAATIFIPRPDEYPYWGQGTQVTVSS
notes: source: E. coli LOBSTR-RIL(DE3), purified (Ni Sepharose, SEN-p protease, Superdex S75); not shown: 14xHis, N-terminal, cleaved; bdSUMO, N-terminal, cleaved
B11: binds [7]; no binding [8].

B12: VHH-SAN7 (VHH)
VHH: B4 VHH
notes: as for B11
B12: binds [7]; binds [9].

B13: Seh1 (natural protein, S. cerevisiae)
chain: MQPFDSGHDDLVHDVVYDFYGRHVATCSSDQHIKVFKLDKDTSNWELSDSWRAHDSSIVAIDWASPEYGRIIASASYDKTVKLWEEDPDQEECSGRRWNKLCTLNDSKGSLYSVKFAPAHLGLKLACLGNDGILRLYDALEPSDLRSWTLTSEMKVLSIPPANHLQSDFCLSWCPSRFSPEKLAVSALEQAIIYQRGKDGKLHVAAKLPGHKSLIRSISWAPSIGRWYQLIATGCKDGRIRIFKITEKLSPLASEESLTNSNMFDNSADVDMDAQGRSDSNTEEKAELQSNLQVELLSEHDDHNGEVWSVSWNLTGTILSSAGDDGKVRLWKATYSNEFKCMSVITAQQ
notes: Seh1, S. cerevisiae; Used alone in SEC with VHH-SAN1; also written alone for its contact with Nup85(1-564) in the structure 6X08; also called Seh1 alone; source: E. coli
B13: binds [10].

B14: VHH-SAN3 with biotinylated C-terminal Avi-tag (VHH)
VHH: QVQLVESGGGLVQAGGSLRLSCFASGGTFSRYDMGWFRQAPGKEREFVARITRGGRVADYAAFVEGRFTISRDNAKNTVYLQMNSLKPEDTGIYFCAGKDAGVFDFYLWGQGTQVTVSS
notes: as for B1
B14 gave a Kd [1] of 0.014 nM, a koff [1] of 8.1e-06 s⁻¹ and a kon [1] of 580000 M⁻¹ s⁻¹.
